Assay results published in PMC12814185, “Receptor-Mediated Shuttling of a D‑Amino Acid Peptide Achieves High Nanomolar Cytosolic Concentrations” (Journal of the American Chemical Society, 2025).
[ ]: non-standard residue; d: D form. sulfo‑Cy5 = sulfo-cyanine 5 dye; Cit = NC(=O)NCCC[C@H](N)C(=O)O; Pra = C#CC[C@H](N)C(=O)O; (EG)3 = spacer

Legend:
[1] = biological target: T1, recombinant human GST-MDM2 (human, UniProt Q00987 1-491); experiment: fluorescence polarisation; details: both partners purified
T1 construct: source: recombinant
T1 sequence (Q00987 whole entry): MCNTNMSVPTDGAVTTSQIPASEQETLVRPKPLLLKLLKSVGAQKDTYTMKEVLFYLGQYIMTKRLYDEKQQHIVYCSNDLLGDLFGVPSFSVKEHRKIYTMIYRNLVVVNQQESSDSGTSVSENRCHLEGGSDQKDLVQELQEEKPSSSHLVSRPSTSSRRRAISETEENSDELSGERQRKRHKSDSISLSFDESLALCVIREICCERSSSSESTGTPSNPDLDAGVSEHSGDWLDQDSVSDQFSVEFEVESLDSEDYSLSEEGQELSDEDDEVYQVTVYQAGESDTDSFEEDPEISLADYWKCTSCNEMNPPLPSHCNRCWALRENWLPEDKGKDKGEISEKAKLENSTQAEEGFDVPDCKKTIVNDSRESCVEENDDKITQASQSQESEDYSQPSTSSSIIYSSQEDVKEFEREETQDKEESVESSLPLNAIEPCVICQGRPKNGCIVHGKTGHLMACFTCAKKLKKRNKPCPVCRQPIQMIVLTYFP

[2] = biological target: T2, chemokine-like receptor 1 (CMKLR1) (UniProt Q99788 1-373); experiment: cell-based or functional assay
T2 sequence (looked up): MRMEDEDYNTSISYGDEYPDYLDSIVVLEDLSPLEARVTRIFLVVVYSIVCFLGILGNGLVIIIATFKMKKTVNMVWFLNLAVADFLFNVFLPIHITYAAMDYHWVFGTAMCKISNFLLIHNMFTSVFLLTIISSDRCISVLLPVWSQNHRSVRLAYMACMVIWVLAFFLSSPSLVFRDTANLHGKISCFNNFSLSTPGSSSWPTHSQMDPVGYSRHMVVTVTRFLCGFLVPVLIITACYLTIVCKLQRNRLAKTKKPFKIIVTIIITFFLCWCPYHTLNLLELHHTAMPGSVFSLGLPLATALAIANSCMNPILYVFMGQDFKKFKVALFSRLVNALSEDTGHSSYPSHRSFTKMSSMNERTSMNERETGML

B1: Cy5-PMIγ-cC9 (peptide)
chain: {sulfo‑Cy5-(EG)3}-[dD][dW][dW][dP][dL][dA][dF][dE][dA][dL][dL][dR]GEV[Cit]-{(EG)3-Pra-NH2}
modifications: not fully specified (bridges); also: CuAAC triazole link from Pra to azidolysine of the cC9 chain
Kd [1]: 90 nM | Ca2+ flux assay, EC50 [2]: 185 nM
